Assay results taken from patent US6410317, “Recombinase-based methods for producing expression vectors and compositions for use in practicing the same” (Clontech Laboratories, Inc.).

How the values were obtained:
[1] = target: T1, Cre recombinase (UniProt P06956 P06956:1-343); assay: in vitro recombination pD3 x pCMVmycloxP, 50 mM Tris-HCl pH 7.5, 30 mM NaCl, 10 mM MgCl2, BSA, 37 C 15 min; chloramphenicol selection in E. coli; conditions: chain copies: 4 per synapse (inferred); AatII and EcoRI overhangs before cloning; assayed within plasmid
Protocol: (§1) To achieve generation of the expression vector from the donor and acceptor, the following were mixed together on ice in a standard eppendorf microcentrifuge tube: 0.5 µg pCMVmycloxP (representing the Acceptor vector); 0.5 µg pD3 (representing the Donor vector); 2 µl 10×Cre reaction buffer (10×Cre reaction buffer contains: 500 mM Tris-HCl (pH 7.5) and 300 mM NaCl); 10 mM MgCl_2, 1 µl 20×BSA (20×BSA contains 2 mg/ml BSA (NEB)); 25 Units Cre recombinase (Novagen); H_2O to 20 µl total.
(§2) Once the reagents were mixed, the reaction was incubated for 15 mins at 37° C. Following the reaction, the mixture was heated to 65° C. for 10 mins to inactivate the Cre enzyme. Finally, an aliquot of the reaction mix was transformed to E. coli using standard methods (e.g., electroporation), and the transformed bacteria selected on LB plates containing 60 µg/ml Chloramphenicol.

[2] = target: T1, Cre recombinase; assay: same reaction, second donor loxP site; conditions: chain copies: 4 per synapse (inferred); EcoRI and SapI overhangs before cloning; assayed within plasmid
Protocol: as §1, §2

[3] = target: T1, Cre recombinase; assay: acceptor loxP site; same buffer, 37 C 15 min; loxP of this acceptor PCR-transferred to 10 acceptors, 27 of 30 clones correct with pDNR-luc; conditions: chain copies: 4 per synapse (inferred); SfiI and BglII overhangs before cloning; assayed within plasmid

T1 sequence (P06956 whole entry, one chain of several): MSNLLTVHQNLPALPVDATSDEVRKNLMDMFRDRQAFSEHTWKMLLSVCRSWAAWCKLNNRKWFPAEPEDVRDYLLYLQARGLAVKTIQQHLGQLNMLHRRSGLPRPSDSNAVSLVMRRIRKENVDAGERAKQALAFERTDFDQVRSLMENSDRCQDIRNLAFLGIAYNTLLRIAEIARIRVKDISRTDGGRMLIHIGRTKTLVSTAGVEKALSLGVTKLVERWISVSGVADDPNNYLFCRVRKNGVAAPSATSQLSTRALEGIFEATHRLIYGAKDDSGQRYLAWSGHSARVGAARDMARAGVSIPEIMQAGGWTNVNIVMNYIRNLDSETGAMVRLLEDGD

B1: loxP site 1 of donor pD3 (LoxP1-up/down) (dsDNA)
DNA 1: CGCGGCCGCATAACTTCGTATAGCATACATTATACGAAGTTATCAGTCGACG
DNA 2: AATTCGTCGACTGATAACTTCGTATAATGTATGCTATACGAAGTTATGCGGCCGCGACGT
binding result [1]: binds

B2: loxP site 2 of donor pD3 (LoxP2-up/down) (dsDNA)
DNA 1: AATTCGGATCCATAACTTCGTATAGCATACATTATACGAAGTTATGCGGCC
DNA 2: AGCGGCCGCATAACTTCGTATAATGTATGCTATACGAAGTTATGGATCCG
binding result [2]: binds

B3: loxP site of acceptor pCMVmycloxP (LoxPMyc-up/down) (dsDNA)
DNA 1: AGATAACTTCGTATAGCATACATTATACGAAGTTATA
DNA 2: GATCTATAACTTCGTATAATGTATGCTATACGAAGTTATCTCCA
binding result [3]: binds
